According to patent US10221404B2, “Method for modifying characteristics of a lipase” (Novozymes A/S, priority 2014, dated 2019):

Legend:
[1] = AMSA wash performance, propeptide dose response; settings: Model B/50 mM glycine pH 8; normalized to wash performance without inhibitor; 3 hours incubation at 4° C.
Procedure: (§1) Washing experiments were performed using Automatic Mechanical Stress Assay (AMSA) in order to assess the wash performance in laundry. The AMSA plate has a number of slots for test solutions and a lid firmly squeezing the laundry sample, the textile to be washed against all the slot openings. During the washing time, the plate, test solutions, textile and lid were vigorously shaken to bring the test solution in contact with the textile and apply mechanical stress in a regular, periodic oscillating manner. For further description see WO02/42740 especially the paragraph “Special method embodiments” at page 23-24.
(§2) The laundry experiments were conducted in Model Detergent B, pH8. The experimental conditions are specified below:
(§3) Final adjustments to the specified pH were done with NaOH or citric acid. Water hardness was adjusted to 15° dH by addition of CaCl2 and MgCl2 (Ca^2+:Mg^2+=4:1) to the test system.
(§4) After washing the textiles were flushed in tap water and excess water was removed from the textiles using filter paper and immediately thereafter the textiles were dried at 85° C. for 5 min.
(§5) The wash performance was measured as the color change of the washed soiled textile. The soil was cream mixed with turmeric. Turmeric contains the colorant curcumin, which function as a pH indicator by having pH dependent color change. Lipase activity leads to release of free fatty acids from the cream acylglycerides and this leads to pH decrease and thereby color change of the curcumin pH indicator. Lipase wash performance can therefore be expressed as the extent of color change of light reflected-emitted from the washed soiled textile when illuminated with white light.
Color measurements were made with a professional flatbed scanner (EPSON EXPRESSION 10000XL, Atea NS, Lautrupvang 6, 2750 Ballerup, Denmark), which was used to capture an image of the washed soiled textile. […]
(§6) Color change due to lipase activity was measured as the increase in the reflection-emitting of green light (G) relative to the sum of reflected-emitted blue (B) and red (R) light. The wash performance (RP(Wash)) of a lipase relative to a reference lipase (Lipolase™) was calculated as: RP(Wash)=(G/(B+R)(tested lipase)−G/(B+R)(no enzyme))/(G/(B+R)(lipase ref.)−G/(B+R)(no enzyme)).
The inhibitory effect of the isolated propeptide (PP) was determined by mixing isolated propeptide in molar excess with separately purified active RmL core-enzyme at increasing molar ratios of propeptide to lipase. […] After 3 hours incubation at 4° C. lipase wash performance of the incubated lipase-inhibitor samples were determined by Automatic Mechanical Stress Assay (AMSA) as described above. […]

[2] = Hydrolytic activity, kinetic assay with p-nitrophenyl acyl esters; assay type: biochemical; settings: substrates C3, C6, C10, C12, C16 at 1 mM; 50 mM Tris pH 7.7, 0.4% TritonX-100; 405 nm for 5 minutes
Procedure: The hydrolytic activity of RmL with and without propeptide on various fatty acids was investigated in a kinetic assay using p-nitrophenyl acyl esters as substrate. The 100 mM stock solutions in DMSO of the substrates: p-Nitrophenyl butyrate (C3), p-Nitrophenyl caproate (C6), p-Nitrophenyl caprate (C10), p-Nitrophenyl laurate (C12) and p-Nitrophenyl palmitate (C16) (all from Sigma-Aldrich Danmark NS, Kirkebjerg Allé 84, 2605 Brondby; Cat. no.: C3:N-9876, C6: N-0502, C10: N-0252, C12: N-2002, C16: N-2752) were diluted to a final concentration of 1 mM into assay buffer (50 mM Tris; pH 7.7; 0.4% TritonX-100).
RmL with and without propeptide and appropriate controls: Buffer (negative), Lipex™ (positive) RmL with and without propeptide in 50 mM Hepes pH8.0; 10 ppm TritonX-100; 20 mM CaCl2 were added to the substrate solution in the following final concentrations: 0.01 mg/mL; 5×10^−3 mg/mL; […]; and 1.25×10^−4 mg/mL in 96-well NUNC plates (Cat. No: 260836, Kamstrupvej 90, DK-4000, Roskilde). Release of p-nitrophenol by hydrolysis of p-nitrophenyl acyl was monitored at 405 nm for 5 minutes in 10 second intervals on a Spectra max 190 (Molecular Devices GmbH, Bismarckring 39, 88400 Biberach an der Riss, GERMANY).

[3] = AMSA wash performance, specificity of inhibitory effect of propeptide
Procedure: as §1, §2, §3, §4, §5
(§7) Color measurements were made with a professional flatbed scanner (EPSON EXPRESSION 10000XL, Atea NS, Lautrupvang 6, 2750 Ballerup, Denmark), which was used to capture an image of the washed soiled textile. To extract a value for the light intensity from the scanned images, 24-bit pixel values from the image were converted into values for red, green and blue (RGB).
as §6
The inhibitory specificity of the isolated propeptide was determined by mixing the isolated propeptide in a 320:1 molar ratio with 5 different lipases including the active RmL. All enzymes were diluted in 10 mM succinic acid buffer, pH6.5, to a concentration of 1.5 uM and were mixed (1:1) with purified propeptide dilutions. After 3 hours incubation at 4° C. the lipase performance of the incubated lipase-inhibitor samples were determined by Automatic Mechanical Stress Assay (AMSA) as described above. The relative wash performance “RP(wash)” is for each lipase normalized to the wash performance without inhibitor.

[4] = AMSA wash performance after activation with detergent and/or protease; parameters: key to No (RP) / Det (RP) / Sav (RP) / Det + Sav (RP): wash performance relative to reference lipase (Lipolase), RP ratio
Procedure: as §1, §2, §3, §4, §5, §7, §6
Wild type RmL without or with propeptide respectively were submitted to no, detergent, protease or detergent+protease treatment prior to performance test in AMSA to test the activation level of the lipase after the treatment. […] […] Wash performance of all samples were determined by Automatic Mechanical Stress Assay (AMSA) as described above.

[5] = Thermostability by Differential Scanning Calorimetry (DSC); assay type: physicochemical; settings: 50 mM HEPES, 100 mM NaCl, 1 mM CaCl2, pH8.0; heating rate 200 K/hr
Procedure: The thermostability of Rhizomucor miehei lipase, RmL (SEQ ID NO: 3) with or without non covalently bound native propeptide (SEQ ID NO: 4) was determined by Differential Scanning calorimetry (DSC) using a VP-Capillary Differential Scanning calorimeter (MicroCal Inc., Piscataway, N.J., USA).
The thermal denaturation temperature, Td (° C.), was taken as the top of denaturation peak (major endothermic peak) in thermograms (Cp vs. T) obtained after heating enzyme solutions in buffer (50 mM HEPES; 100 mM NaCl; 1 mM CaCl2; pH8.0) at a constant programmed heating rate of 200 K/hr. RmL without propeptide added was analyzed at a concentration of 0.42 mg/mL, where as in presence of propeptide the concentration of RmL was 0.34 mg/mL as a consequence of mixing of 440 uL enzyme solution (at 0.42 mg/mL) and 100 uL peptid solution at a concentration of 480 uM (concentration determined by amino acid analysis)
Sample- and reference-solutions (approx. 0.2 mL) were loaded into the calorimeter (reference: buffer without enzyme) from storage conditions for 3 hours (mixing) at 10° C. and thermally pre-equilibrated for approx. 20 minutes at 20° C. prior to DSC scan from 20° C. to 100° C. Denaturation temperatures were determined at an accuracy of approximately +/−1° C.

B1: RmL: Rhizomucor miehei lipase mature protein (SEQ ID NO: 3), without propeptide (protein, listed as Rhizomucor miehei)
chain: SIDGGIRAATSQEINELTYYTTLSANSYCRTVIPGATWDCIHCDATEDLKIIKTWSTLIYDTNAMVARGDSEKTIYIVFRGSSSIRNWIADLTFVPVSYPPVSGTKVHKGFLDSYGEVQNELVATVLDQFKQYPSYKVAVTGHSLGGATALLCALDLYQREEGLSSSNLFLYTQGQPRVGDPAFANYVVSTGIPYRRTVNERDIVPHLPPAAFGFLHAGEEYWITDNSPETVQVCTSDLETSDCSNSIVPFTSVLDHLSYFGINTGLCT
In the case of B1, the “RP (wash) Rep. 1” value [1] is reported as 1.00, the “RP (wash) Rep. 2” value [1] is reported as 1.00 and the “RP (wash) Rep. 3” value [1] is reported as 1.00. For the same molecule, the “RP (wash) Rep. 4” value [1] was 1.00, the “hydrolytic activity on p-nitrophenyl acyl esters” value [2] was “activity in all conditions tested” and the “With inhibitor RP (wash)” value ([3]; propeptide SEQ ID No: 4 in 320:1 molar ratio, 3 hours at 4° C., normalized to wash performance without inhibitor) was 0.02. For the same molecule, the “No inhibitor RP (wash)” value ([3]; without propeptide SEQ ID No: 4, normalized per lipase) was 1.00, the “No (RP)” value ([4]; 60 minutes in 10 mM succinic acid pH6.5) was 1.00 and the “Sav (RP)” value ([4]; 60 minutes in 1.35% (v/v) Savinase in 10 mM succinic acid pH6.5) was 0.99. For the same molecule, the “Det + Sav (RP)” value ([4]; 60 minutes in 1.35% (v/v) Savinase in 77% (w/w) Detergent B) was 0.84, the “Det (RP)” value ([4]; 60 minutes in 77% (w/w) Model detergent B) was 0.89 and the “Thermostability Td at pH 8.0” value [5] was 61 °C.
